Results: patent publication US20210261944, “Compositions and methods for ordered and continuous complementary DNA (cDNA) synthesis across non-continuous templates” (The Regents of the University of California, published 2021)

Key:
[1] = biological target: T1, BomoC(ed) R2 RT (deltaN274, D996A) (Bombyx mori); assay: used as second (terminal) template in ordered template relay; Mg2+, 37C; details: tags: N-terminal MBP, C-terminal 6xHis; partial duplex, 3' C
T1 chain: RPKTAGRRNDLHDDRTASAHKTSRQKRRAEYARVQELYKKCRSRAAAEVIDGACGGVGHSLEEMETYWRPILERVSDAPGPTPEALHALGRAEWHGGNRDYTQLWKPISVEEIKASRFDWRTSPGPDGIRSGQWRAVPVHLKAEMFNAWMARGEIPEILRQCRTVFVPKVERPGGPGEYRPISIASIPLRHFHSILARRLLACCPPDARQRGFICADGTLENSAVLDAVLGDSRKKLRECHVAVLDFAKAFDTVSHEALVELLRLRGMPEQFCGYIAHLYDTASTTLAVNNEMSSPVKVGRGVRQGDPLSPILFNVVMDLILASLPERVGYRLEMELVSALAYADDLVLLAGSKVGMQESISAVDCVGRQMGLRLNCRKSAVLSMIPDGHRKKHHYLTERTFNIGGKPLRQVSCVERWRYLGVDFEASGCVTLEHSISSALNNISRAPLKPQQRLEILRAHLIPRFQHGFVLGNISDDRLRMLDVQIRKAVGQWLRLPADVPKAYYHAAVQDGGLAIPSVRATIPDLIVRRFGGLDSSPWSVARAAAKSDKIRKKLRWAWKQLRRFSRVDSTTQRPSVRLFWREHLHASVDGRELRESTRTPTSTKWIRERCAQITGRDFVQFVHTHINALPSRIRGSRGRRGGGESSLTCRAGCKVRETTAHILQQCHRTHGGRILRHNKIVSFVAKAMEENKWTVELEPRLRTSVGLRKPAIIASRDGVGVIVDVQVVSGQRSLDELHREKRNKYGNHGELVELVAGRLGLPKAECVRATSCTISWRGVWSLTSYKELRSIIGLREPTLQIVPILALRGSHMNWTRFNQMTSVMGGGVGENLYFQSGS
Description: (§1) FIG. 15B. Analysis of reaction products by denaturing PAGE and SYBR Gold staining using a template RNA pool of 963 equimolar miRNA sequences (miRXplore). The full-length cDNA library (labeled cDNA+adaptor template) and some cDNA product from copying of the miRNA template only (labeled cDNA) are the predominant products. Excess adaptor primer and adaptor template are also stained. “No enz” is the no enzyme control. Lane+/− indicates addition of RNase A after product denaturation, which removes the non-extended strand of the primer duplex and truncates the ˜70 nt 3′ adaptor template. The library was sequenced with results shown in comparison to a low-cycle-PCR library in FIG. 16B.
(§2) Typical assays for cDNA synthesis by processive use of multiple template molecules (i.e., serial template copying) used a DNA primer that was annealed in full or part to a second strand, usually RNA, to generate a primer 3′ end that was blunt duplex or a short 3′ overhang of defined sequence. Templates included chemically synthesized RNA or DNA oligonucleotides and/or RNAs purified after T7 RNA polymerase transcription; templates were also isolated from biological sources. Reaction conditions were typically 20 mM Tris-HCl pH 7.5, 150 mM KCl, 2 mM MgCl₂, 10% glycerol with incubations at room temperature or 37° C. […]

[2] = biological target: T1, BomoC(ed) R2 RT (deltaN274, D996A); assay: primer for low-PCR cDNA library; Mg2+, 37C; details: tags: N-terminal MBP, C-terminal 6xHis; partial duplex
[3] = biological target: T1, BomoC(ed) R2 RT (deltaN274, D996A); assay: primer extended across ddA-tailed miRNA pool; full-length cDNA library; Mg2+, 37C; enzyme named as modified R2 RT; details: tags: N-terminal MBP, C-terminal 6xHis; partial duplex, +1T 3' overhang
Description: as §1, §2

B1: no-PCR adaptor template partial duplex c3t(FL)/c3t_comp (mixed)
DNA: AATGATACGGCGACCACCGAGATCTACACCGCAGACGACACTCTTTCCCTACACGACGCTCTTCCGATCTC
RNA: GUGUAGAUCUCGGUGGUCGCCGUAUCAUU
modifications: 5' amino modifier C6, mixed DNA/ribonucleotides; complement 3' C3 spacer
Does B1 bind [1]?
Result: binds

B2: low-PCR adaptor primer duplex c5p(uni)/c5pt (DNA:RNA)
DNA: GTGACTGGAGTTCAGACGTGTGCTCTTCCGATCC
RNA: GAUCGGAAGAGCACACGUCUGAACUCCAGU
modifications: 3' C3 spacer on RNA strand
Does B2 bind [2]?
Result: binds

B3: no-PCR adaptor primer partial duplex c5p(FL)/c5pt (DNA:RNA)
DNA: CAAGCAGAAGACGGCATACGAGATGACGAGAGGTGACTGGAGTTCAGACGTGTGCTCTTCCGATCT
RNA: GAUCGGAAGAGCACACGUCUGAACUCCAGU
modifications: 3' C3 spacer on RNA strand
Does B3 bind [3]?
Result: binds
